Values of other authors as cited in patent publication US20060105948A1, “GLP-2 derivatives” (Novo Nordisk A/S, priority 2003, published 2006).

Assays:
[1] = system: (DS)-induced colitis in mice; details: 350 ng or 750 ng s.c. twice daily for 9-10 days
[2] = humans
[3] = in vivo
[4] = s.c. injection 400 mg = 106.000 pmol

| Substance | histology of colon ([1]; DS mice) | body weight loss ([1]; mice on 5% DS in drinking water) | T½ value of elimination ([2]; GLP-2 infusion 0.8 pmol/kg * min) [min] | plasma level of intact GLP-2(1-33) reached on infusion ([2]; GLP-2 infusion 0.8 pmol/kg * min, increasing from 9 pM) [nM] | injected GLP-2(1-33) still intact ([2]; one hour after the s.c. injection) [%] | maximum plasma concentration [2, 4] [pM] | time of maximum plasma concentration [2, 4] [min] | biological half-life [3] |
| --- | --- | --- | --- | --- | --- | --- | --- | --- |
| A2G-GLP-2(1-33) (HGDGSFSDEMNTILDNLAARDFINWLIQTKITD; Glucagon-like peptide 2; UniProt P01275 146-178, looked up, variant A2G) [GLP-2 peptide analog with Ala2 replaced by Gly] | greater proportion of intact mucosal epithelium, increased colon length, crypt depth and mucosal area | lost significantly less body weight | – | – | – | – | – | – |
| GLP-2(1-33) | – | – | 7 | 0.131 | 69 | 1500 | 45 | about 7 min |
